B1: Azoarcus group I ribozyme (parent)
chain: GUGCCUUGCGCCGGGAAACCACGCAAGGGAUGGUGUCAAAUUCGGCGAAACCUAAGCGCCCGCCCGGGCGUAUGGCAACGCCGAGCCAAGCUUCGGCGCCUGCGCCGAUGAAGGUGUAGAGACUAGACGGCACCCACCUAAGGCAAACGCUAUGGUGAAGGCAUAGUCCAGGGAGUGGCGAAAGUCACACAAACCGG

Variants of: B1
Assay: reverse-splicing fitness (ratio to wild type); higher = more active; in vitro selection; Mg2+ level not given
Method in brief: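 An in vitro group I ribozyme library with randomized positions was T7-transcribed and gel-purified. In triplicate, 10 pmol RNA in EPPS pH 7.5 was reacted with 50 pmoles of a 30-nt RNA substrate for 1 h at 37 °C across several added MgCl2 levels (1–48 mM), then stopped with EDTA. Products were reverse transcribed from a substrate-complementary primer, PCR-amplified and sequenced (HiSeq 4000). Fitness is a variant's read proportion after selection over that before, normalised to wild type.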

| Variant | reverse-splicing fitness |
| --- | --- |
| GUGCCUUGCGCCGGGAAACCACGCAAGGGAUGGUGUCAAAUUCGGCGAAACCUAAGCGCCCGCCCGGGCGUAUGGCAACGCGGAGCCAAGCUUCGGCGCCUGCGCCGAUGGAGGUGUAGGGACUAGACGGCACCCACCUAAGGCGAACGUUAUGGUGAAGGCAUAGUCGAGGGAGAGGCGAAAGUCACACAAACCGG | 0.0139 |
| GUGCCUUGCGCCGGGAAACCACGCAAGGGAUGGUGUCAAAUUCGGCGAAACCUAAGCGCCCGCCCGGGCGUAUGGCAACGCGGAGCCAAGCUUCGGCGCCUGCGCCGAUGGAGGUGUAGGGACUAGACGGCACCCACCUAAGGCGAACGUUAUGGUGAAGGCAUAGUCAAGGGAGGGGCGAAAGUCACACAAACCGG | 0.00616 |
| GUGCCUUGCGCCGGGAAACCACGCAAGGGAUGGUGUCAAAUUCGGCGAAACCUAAGCGCCCGCCCGGGCGUAUGGCAACGCGGAGCCAAGCUUCGGCGCCUGCGCCGAUGGAGGUGUAGGGACUAGACGGCACCCACCUAAGGCGAACGUUAUGGUGAAGGCAUAGUCAAGGGAGAGGCGAAAGUCACACAAACCGG | 0.0163 |
| GUGCCUUGCGCCGGGAAACCACGCAAGGGAUGGUGUCAAAUUCGGCGAAACCUAAGCGCCCGCCCGGGCGUAUGGCAACGCGGAGCCAAGCUUCGGCGCCUGCGCCGAUGGAGGUGUAGGGACUAGACGGCACCCACCUAAGGCGAACGUUAUGGUGAAGGCAUAGUCAAGGGAGCGGCGAAAGUCACACAAACCGG | 0.0177 |
| GUGCCUUGCGCCGGGAAACCACGCAAGGGAUGGUGUCAAAUUCGGCGAAACCUAAGCGCCCGCCCGGGCGUAUGGCAACGCGGAGCCAAGCUUCGGCGCCUGCGCCGAUGGAGGUGUAGGGACUAGACGGCACCCACCUAAGGCGAACGGUAUGGUGAAGGCAUAGUCGAGGGAGUGGCGAAAGUCACACAAACCGG | 0.00845 |
| GUGCCUUGCGCCGGGAAACCACGCAAGGGAUGGUGUCAAAUUCGGCGAAACCUAAGCGCCCGCCCGGGCGUAUGGCAACGCGGAGCCAAGCUUCGGCGCCUGCGCCGAUGGAGGUGUAGGGACUAGACGGCACCCACCUAAGGCGAACGGUAUGGUGAAGGCAUAGUCAAGGGAGUGGCGAAAGUCACACAAACCGG | 0.00957 |
| GUGCCUUGCGCCGGGAAACCACGCAAGGGAUGGUGUCAAAUUCGGCGAAACCUAAGCGCCCGCCCGGGCGUAUGGCAACGCGGAGCCAAGCUUCGGCGCCUGCGCCGAUGGAGGUGUAGGGACUAGACGGCACCCACCUAAGGCGAACGGUAUGGUGAAGGCAUAGUCUAGGGAGUGGCGAAAGUCACACAAACCGG | 0.00986 |
| GUGCCUUGCGCCGGGAAACCACGCAAGGGAUGGUGUCAAAUUCGGCGAAACCUAAGCGCCCGCCCGGGCGUAUGGCAACGCGGAGCCAAGCUUCGGCGCCUGCGCCGAUGGAGGUGUAGGGACUAGACGGCACCCACCUAAGGCGAACGGUAUGGUGAAGGCAUAGUCCAGGGAGUGGCGAAAGUCACACAAACCGG | 0.00815 |
| GUGCCUUGCGCCGGGAAACCACGCAAGGGAUGGUGUCAAAUUCGGCGAAACCUAAGCGCCCGCCCGGGCGUAUGGCAACGCGGAGCCAAGCUUCGGCGCCUGCGCCGAUGGAGGUGUAGGGACUAGACGGCACCCACCUAAGGCGAACGUUAUGGUGAAGGCAUAGUCCAGGGAGUGGCGAAAGUCACACAAACCGG | 0.0167 |
| GUGCCUUGCGCCGGGAAACCACGCAAGGGAUGGUGUCAAAUUCGGCGAAACCUAAGCGCCCGCCCGGGCGUAUGGCAACGCGGAGCCAAGCUUCGGCGCCUGCGCCGAUGGAGGUGUAGGGACUAGACGGCACCCACCUAAGGCGAACGGUAUGGUGAAGGCAUAGUCCAGGGAGAGGCGAAAGUCACACAAACCGG | 0.00718 |
| GUGCCUUGCGCCGGGAAACCACGCAAGGGAUGGUGUCAAAUUCGGCGAAACCUAAGCGCCCGCCCGGGCGUAUGGCAACGCGGAGCCAAGCUUCGGCGCCUGCGCCGAUGGAGGUGUAGGGACUAGACGGCACCCACCUAAGGCGAACGGUAUGGUGAAGGCAUAGUCCAGGGAGCGGCGAAAGUCACACAAACCGG | 0.0114 |
| GUGCCUUGCGCCGGGAAACCACGCAAGGGAUGGUGUCAAAUUCGGCGAAACCUAAGCGCCCGCCCGGGCGUAUGGCAACGCGGAGCCAAGCUUCGGCGCCUGCGCCGAUGGAGGUGUAGGGACUAGACGGCACCCACCUAAGGCGAACGGUAUGGUGAAGGCAUAGUCCAGGGAGGGGCGAAAGUCACACAAACCGG | 0.00608 |
| GUGCCUUGCGCCGGGAAACCACGCAAGGGAUGGUGUCAAAUUCGGCGAAACCUAAGCGCCCGCCCGGGCGUAUGGCAACGCGGAGCCAAGCUUCGGCGCCUGCGCCGAUGGAGGUGUAGGGACUAGACGGCACCCACCUAAGGCGAACGGUAUGGUGAAGGCAUAGUCUAGGGAGAGGCGAAAGUCACACAAACCGG | 0.0127 |
| GUGCCUUGCGCCGGGAAACCACGCAAGGGAUGGUGUCAAAUUCGGCGAAACCUAAGCGCCCGCCCGGGCGUAUGGCAACGCGGAGCCAAGCUUCGGCGCCUGCGCCGAUGGAGGUGUAGGGACUAGACGGCACCCACCUAAGGCGAACGGUAUGGUGAAGGCAUAGUCUAGGGAGGGGCGAAAGUCACACAAACCGG | 0.00812 |
| GUGCCUUGCGCCGGGAAACCACGCAAGGGAUGGUGUCAAAUUCGGCGAAACCUAAGCGCCCGCCCGGGCGUAUGGCAACGCGGAGCCAAGCUUCGGCGCCUGCGCCGAUGGAGGUGUAGGGACUAGACGGCACCCACCUAAGGCGAACGGUAUGGUGAAGGCAUAGUCUAGGGAGCGGCGAAAGUCACACAAACCGG | 0.0129 |

Reference: the RNAGym collection of RNA variant scans (doi:10.1093/molbev/msab373)
